Data as given in patent US20250295796A1, “CELL PENETRATING POLYPEPTIDES (CPPS) AND THEIR USE IN HUMAN THERAPY” (RDP PHARMA AG, priority 2021, published 2025).

Experiments:
[1] = test system: 4T1 breast tumor lung metastasis; assay: Organ-distribution in 4T1 breast tumor lung metastasis mouse model; conditions: four hours after i.v. 8 mg/kg, ex vivo total photon flux
Procedure: In vivo organ-distribution of CROMOC36-AF680 molecules in tumor containing mice. First orthotopic allograft 4T1 breast tumor lung metastasis mouse model was analyzed for CROMOC-AF680 distribution in vivo (FIG. 19A). Four hours after i.v. injection of 8 mg/kg of the CROMOC molecule labeled with the AF680 fluorescent dye, lungs containing 4T1cell metastasis were isolated and fluorescence intensity was assessed ex vivo (total photon flux shown on X-axis logarithmic scale).

[2] = test system: murine Lewis lung carcinoma; assay: Lewis lung carcinoma (LLC) model, primary tumor growth and metastasis
Procedure: The efficacy of CROMOC36 on the Lewis lung carcinoma (LLC) model, was selected for testing the activity of CROMOC36 against primary tumor growth and metastasis formation. CROMOC36 was tested as a single agent and in combination with Cyclophosphamide (CYPP). In addition, single-agent CYPP was used as a reference compound, allowing comparison of the efficacy of CROMOC36 with a commonly used antitumor agent (summarized in FIG. 9).

[3] = test system: human pancreatic tumor cell lines; assay: Propidium iodide based monolayer proliferation assay, panel of 13 human pancreatic tumor cell lines
Procedure: Monolayer Assay Propidium Iodid (PI). Cells were harvested from exponential phase cultures, counted and depending on the cell line 3.000 to 20.000 cells were plated in 96-well flat-bottom microtiter plates After a 24 h recovery period to allow cells to resume exponential growth, 10 μl of culture medium (four control wells/plate) or culture medium with the test compound were added by a liquid handling robotic system and treatment continued for four days. Compounds were applied in half-log increments at 10 concentrations in duplicate. Three independent experiments were performed. Cells were then washed with 200 μl PBS to remove dead cells followed by addition of 200 μl of a solution containing 7 μg/ml propidium iodide (PI) and 0.1% (v/v) Triton X-100. After an incubation period of 1-2 h at room temperature, fluorescence (FU) was measured using the Cytofluor 4000 microplate reader (excitation λ=530 nm, emission λ=620 nm) to quantify the amount of attached viable cells. Concentrations required for 50% inhibition of cell growth (IC50) were calculated by non-linear regression (log[conc. of inhibitor]versus response (% T/C)) using the analysis software GraphPad Prism®, Prism 5 for windows, version 5.01 (GraphPad Software Inc., CA).
CROMOC36—in vitro activity Human pancreatic carcinoma cell lines. The aim of this study was to investigate the antitumor activity of CROMOC36 in vitro on a panel of 13 human pancreatic tumor cell lines. Antitumor activity was assessed after four days of CROMOC36 treatment using a propidium iodide based monolayer proliferation assay. Up to four experiments were performed in each cell line, testing CROMOC36 at ten concentrations in half-log increments up to 1 μM. Taxol, an antitumor agent commonly used for the treatment of pancreatic cancer, was used as a reference compound and tested in half-log steps up to 0.3 μM.

[4] = test system: M5076 ovarian reticulum sarcoma tumor cell line; assay: M5076 artificial hepatic metastasis model, i.v. route
[5] = test system: lung cancer, ovarian cancer and neuroblastoma and colon cancer cells; assay: SRB assay for 96 hours, cancer cells; format: cell-based; conditions: SRB 96 hours, various cancer cells; read-out: IC50 range
Procedure: Cells were harvested from exponential phase cultures, and depending on the cell line 10.000 to 30.000 cells were plated in 96-well flat-bottom microtiter plates. After a 24 h recovery period to allow cells to resume exponential growth, supernatant was discarded and 100 μl of culture medium (eight control wells/plate) or culture medium with the test compound were added by a liquid handling robotic system (Microlab® Starlet, Hamilton) and treatment continued for 72 hrs. Compounds were applied at 9 concentrations eight wells/concentration). At least three independent experiments were performed. For SRB staining, cells were fixed with SRB01 for 1h at 4° C. (final concentration of TCA=10%) washed with a plate washer (Hydroflex, Tecan©) for five times with H2O; and stained with 100 μl of SRB02 at room temperature for 10 min following 4 washes in SRB03 and finally 100 μl of developer solution SRB04 for 5 minutes with shaking. Optical density was assessed using a plate-reader (Sunrise, Tecan©) at 540 nm. Concentrations required for 50% inhibition of cell growth (IC50) were calculated by non-linear regression (log[conc. of inhibitor] versus response (% T/C)) using the analysis software GraphPad Prism®, Prism 5 for windows, version 5.01 (GraphPad Software Inc., CA). (SRB Buffers FIG. 25).

[6] = Toxicology experiments and various tumor models, cardiotoxicity; format: in vivo
[7] = test system: immortalized non-tumor cells; assay: SRB assay, cytotoxicity to non-tumor cells versus cancer cells
[8] = CROMOC36 4 mg/kg, q2dx5, single agent
[9] = combination of CROMOC36 and CYPP

B1: CROMOC36: single chain PvuII endonuclease fused at its C-terminus to DDM36, PEGylated final product used in the Examples (protein)
chain: MSHPDLNKLLELWPHIQEYQDLALKHGINDIFQDNGGKLLQVLLITGLTVLPGREGNDAVDNAGQEYELKSINIDLTKGFSTHHHMNPVIIAKYRQVPWIFAIYRGIAIEAIYRLEPKDLEFYYDKWERKWYSDGHKDINNPKIPVKYVMEHGTKIYGSGGSGGSSHPDLNKLLELWPHIQEYQDLALKHGINDIFQDNGGKLLQVLLITGLTVLPGREGNDAVDNAGQEYELKSINIDLTKGFSTHHHMNPVIIAKYRQVPWIFAIYRGIAIEAIYRLEPKDLEFYYDKWERKWYSDGHKDINNPKIPVKYVMEHGTKIYGNSGSGKKKKKGKGSGLGSGKKKDPLGSGLGSGKKKKKGKGSGLGSGKKKDPLGST
modifications: PEGylated; peptide, CROMOC36
enrichment in lungs of breast tumor metastasis containing animals versus tumor free animals [1]: more than 10.000 ×
inhibition of total number of metastases ([2]; CROMOC36 0.4 mg/kg): 24%
inhibition of total number of metastases ([2]; CROMOC36 4 mg/kg): 66%
reduction of number of large metastases [2, 8]: 69.1%
reduction of number of medium metastases [2, 8]: 49.2%
reduction of number of small metastases [2, 8]: 61.2%
tolerability ([2]; LLC model): No major issues
inhibition of number of metastases ([2]; combination of CROMOC36 (4 mg/kg) and CYPP (180 mg/kg)): 81%
final decrease in body weight (BW) compared to the start of the experiment [2, 9]: 3.7%
reduction of number of large metastases [2, 9]: 89.2%
reduction of number of medium metastases [2, 9]: 66.7%
reduction of number of small metastases [2, 9]: 81.1%
tumor growth inhibition (TI), primary tumor ([2]; simultaneous combination of CROMOC36 and CYPP): 85.6%
tumor growth inhibition (TI), primary tumor ([2]; single agent, CROMOC36 s.c. q2dx5): 15.2%
IC50 ([3]; 13 pancreatic cell lines, four days treatment, read-out: geomean IC50): 45.9 nM
antitumor activity ([3]; on five of the cell lines tested, up to 1 μM): no activity or only marginal activity
% ILS (mean survival time versus control group) ([4]; CROMOC36 16 mg/kg i.v. q7dx3, Doxorubicin 6 mg/kg q4dx3 (MTD)): 68%
antimetastatic activity in Liver M5076 allograft ([4]; i.v. route, 16 mg/kg q7dx3): strong antimetastatic activity
IC50 [5]: 0.5 to 19 nM
cardiotoxic effects [6]: no cardiotoxic effects were observed
times less cytotoxic to immortalized non-tumor cells than to cancer cells [7]: 40->100
